Target: Fhl1, P97447-2
Sequence (P97447 other isoform, or with tags, fused parts or gaps): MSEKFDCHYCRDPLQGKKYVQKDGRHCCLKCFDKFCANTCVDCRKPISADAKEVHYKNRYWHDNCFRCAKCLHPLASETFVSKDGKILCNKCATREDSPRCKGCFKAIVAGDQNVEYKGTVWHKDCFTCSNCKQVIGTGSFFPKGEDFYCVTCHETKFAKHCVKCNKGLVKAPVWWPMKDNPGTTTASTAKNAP

Chain of Recombining binding protein suppressor of hairless (Mus musculus), P31266 A284R (P31266 whole entry A284R): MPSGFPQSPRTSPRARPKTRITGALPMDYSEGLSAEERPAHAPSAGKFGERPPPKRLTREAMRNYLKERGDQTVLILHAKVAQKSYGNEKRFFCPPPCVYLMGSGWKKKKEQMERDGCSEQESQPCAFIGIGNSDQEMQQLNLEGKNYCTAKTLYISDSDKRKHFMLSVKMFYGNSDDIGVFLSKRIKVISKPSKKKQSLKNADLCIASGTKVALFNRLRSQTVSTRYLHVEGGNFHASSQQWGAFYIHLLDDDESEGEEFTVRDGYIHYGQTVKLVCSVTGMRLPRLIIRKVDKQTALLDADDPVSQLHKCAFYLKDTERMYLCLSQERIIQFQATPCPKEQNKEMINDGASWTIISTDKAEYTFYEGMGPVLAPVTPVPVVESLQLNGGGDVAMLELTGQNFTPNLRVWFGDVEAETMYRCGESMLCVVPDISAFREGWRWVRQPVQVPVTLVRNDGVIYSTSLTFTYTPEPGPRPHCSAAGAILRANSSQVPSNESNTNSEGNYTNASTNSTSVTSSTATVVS
Chain of Recombining binding protein suppressor of hairless (Mus musculus), P31266 F261R (P31266 whole entry F261R): as the sequence (P31266 whole entry A284R) above, with F261R, R284A counted along it

Row | effect of a mutation on the interaction | Substance
1 | decreasing interaction strength | Recombining binding protein suppressor of hairless (Mus musculus), P31266 A284R
2 | decreasing interaction strength | Recombining binding protein suppressor of hairless (Mus musculus), P31266 F261R

Source: IntAct's records for PubMed 24290140
